In assay [1] the target is T1, calcineurin (CN A–CN B heterodimer), recombinant (UniProt Q08209;P63098).
The target in assay [2] is rhodamine-CN (calcineurin labelled with tetramethylrhodamine acceptor) (UniProt Q08209;P63098, tetramethylrhodamine label on CN (chain and site not stated)). Briefly: FRET or BRET.
Assay [3] concerns the target T1, calcineurin (CN A–CN B heterodimer), …. Kind of assay: SEC-MALS. A general note: Size exclusion chromatography separates by hydrodynamic size, large species first.

8 molecules from paper PMC3294036 (Nature structural & molecular biology, 2012) can be followed below.

One may read the Ki as the dissociation constant of the complex between target and ligand, obtained from inhibition or displacement. The koff is the first-order rate constant of dissociation. In general, stoichiometry N refers to a count of units in the complex or per binding partner.

T1 sequence (P63098 16-170, one chain of several): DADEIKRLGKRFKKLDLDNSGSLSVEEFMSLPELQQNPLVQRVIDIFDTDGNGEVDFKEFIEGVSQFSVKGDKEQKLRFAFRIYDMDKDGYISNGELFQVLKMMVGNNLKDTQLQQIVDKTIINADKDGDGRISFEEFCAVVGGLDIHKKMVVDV

B1: GST-AKAP79(333–348) I338A (PAAIIIT) (domain or fragment)
chain: KRMEPAAIIITDTEIS
Turning to B1, the Ki in assay [1] came to 47 µM.

B2: GST-AKAP79(333–348) P337A (AIAIIIT) (domain or fragment)
chain: KRMEAIAIIITDTEIS
In the case of B2, in assay [1], the Ki was found to be 3.7 µM.

B3: GST-tagged wildtype AKAP79(333–408) (PIAIIIT) (domain or fragment)
chain: KRMEPIAIIITDTEISEFDVTKSKNVPKQFLISAENEQVGVFANDNGFEDRTSEQYETLLIETASSLVKNAIQLSI
B3: the inhibition constant (Ki) in assay [1] was 0.36 µM.

B4: ATTO425-AKAP79(333–408) I338P variant (PPAIIIT) (domain or fragment)
chain: KRMEPPAIIITDTEISEFDVTKSKNVPKQFLISAENEQVGVFANDNGFEDRTSEQYETLLIETASSLVKNAIQLSI
modifications: ATTO 425 donor label (site not stated)
Take B4: in assay [2], the off-rate constant (koff) came out at 4.24 s⁻¹.

B5: AKAP79(333–408) (domain or fragment)
chain: KRMEPIAIIITDTEISEFDVTKSKNVPKQFLISAENEQVGVFANDNGFEDRTSEQYETLLIETASSLVKNAIQLSI
As for B5, in assay [3], the “stoichiometry N” value was found to be 1.

B6: GST-AKAP79(333–408) T343A (PIAIIIA) (domain or fragment)
chain: KRMEPIAIIIADTEISEFDVTKSKNVPKQFLISAENEQVGVFANDNGFEDRTSEQYETLLIETASSLVKNAIQLSI
With B6, the Ki in assay [1] was 39 µM.

B7: GST-AKAP79(333–408) I338P (PPAIIIT) (domain or fragment)
chain: KRMEPPAIIITDTEISEFDVTKSKNVPKQFLISAENEQVGVFANDNGFEDRTSEQYETLLIETASSLVKNAIQLSI
On to B7, for which the Ki in assay [1] turned out to be 0.08 µM.

B8: GST-AKAP79(333–408) I338P T343A (PPAIIIA) (domain or fragment)
chain: KRMEPPAIIIADTEISEFDVTKSKNVPKQFLISAENEQVGVFANDNGFEDRTSEQYETLLIETASSLVKNAIQLSI
B8: in assay [1], the Ki is 12 µM.
